Reference: patent publication US10538802B2, “Polypeptide substrate for the detection of von Williebrand factor cleaving protease ADAMTS13” (IMMUCOR GTI DIAGNOSTICS, INC., priority 2011, dated 2020)

Molecular target: T1, ADAMTS13 (Homo sapiens, UniProt Q76LX8)
T1 construct: tissue Gen-Probe GTI Diagnostics (ATS-13 kit calibrators, controls and proficiency samples); George King Biomedical Inc. (FACT, A-FACT, B-FACT plasmas) ATS-13; host or cells: plasma
T1 sequence (Q76LX8 75-1427): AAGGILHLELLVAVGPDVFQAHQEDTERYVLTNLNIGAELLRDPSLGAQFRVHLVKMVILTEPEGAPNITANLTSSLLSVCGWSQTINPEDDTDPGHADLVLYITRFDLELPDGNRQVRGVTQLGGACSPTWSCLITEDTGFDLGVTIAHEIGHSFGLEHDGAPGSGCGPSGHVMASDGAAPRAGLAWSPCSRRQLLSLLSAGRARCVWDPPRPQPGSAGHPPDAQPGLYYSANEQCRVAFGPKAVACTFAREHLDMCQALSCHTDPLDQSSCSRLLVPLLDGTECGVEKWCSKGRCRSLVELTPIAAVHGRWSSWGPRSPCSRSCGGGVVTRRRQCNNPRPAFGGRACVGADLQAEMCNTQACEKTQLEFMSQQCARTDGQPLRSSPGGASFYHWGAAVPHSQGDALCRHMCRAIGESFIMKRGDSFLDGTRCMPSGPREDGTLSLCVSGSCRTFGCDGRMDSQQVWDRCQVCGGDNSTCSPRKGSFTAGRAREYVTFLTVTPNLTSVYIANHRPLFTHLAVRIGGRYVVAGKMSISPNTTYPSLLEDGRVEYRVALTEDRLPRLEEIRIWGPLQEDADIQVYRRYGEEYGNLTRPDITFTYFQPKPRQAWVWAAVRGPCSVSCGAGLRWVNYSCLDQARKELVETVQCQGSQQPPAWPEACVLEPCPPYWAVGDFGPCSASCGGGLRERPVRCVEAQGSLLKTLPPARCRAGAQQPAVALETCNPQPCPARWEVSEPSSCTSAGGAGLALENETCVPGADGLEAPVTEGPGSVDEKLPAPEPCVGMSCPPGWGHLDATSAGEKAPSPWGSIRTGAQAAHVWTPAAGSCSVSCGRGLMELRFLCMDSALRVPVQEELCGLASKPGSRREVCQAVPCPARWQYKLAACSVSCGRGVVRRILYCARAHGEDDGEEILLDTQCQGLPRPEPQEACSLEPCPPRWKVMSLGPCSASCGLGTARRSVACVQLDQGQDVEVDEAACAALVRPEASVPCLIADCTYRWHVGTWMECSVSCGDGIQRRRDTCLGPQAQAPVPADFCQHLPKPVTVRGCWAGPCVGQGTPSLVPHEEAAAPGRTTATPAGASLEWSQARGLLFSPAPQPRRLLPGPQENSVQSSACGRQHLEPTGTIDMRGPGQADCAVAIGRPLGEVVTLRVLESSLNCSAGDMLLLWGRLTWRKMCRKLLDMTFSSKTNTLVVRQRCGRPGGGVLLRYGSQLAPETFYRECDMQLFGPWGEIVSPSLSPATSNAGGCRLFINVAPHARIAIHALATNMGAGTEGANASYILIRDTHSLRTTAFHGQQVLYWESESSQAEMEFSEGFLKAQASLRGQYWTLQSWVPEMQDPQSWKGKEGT
Experiment: ADAMTS13 activity assay with fluorogenic (FRET) polypeptide substrate and diluted plasma samples
Type: biochemical
Protocol: The procedure in this example was performed substantially as described in Kokame, K., Y. Nobe, Y. Kokubo, A. Okayama, and T. Miyata. 2005. FRETS-VWF73, a first fluorogenic substrate for ADAMTS13 assay. Br. J. Haematol. 129:93-100, but using SEQ ID NO: 1 in place of the 73 amino acid substrate described therein. The FRETS-VWF73 substrate solution was dissolved in 25% dimethyl sulphoxide/water to prepare the 100 microM stock solution. The GTI FRET4 SEQ ID NO: 1 was dissolved in 100% DMSO. Both substrates were diluted to equal concentrations using ATS-13 substrate buffer (Gen-Probe GT1 Diagnostics, Inc., U.S.A., Cat#ATS-13).
Plasma samples were diluted according to the ATS-13 Direction Insert using ATS-13 specimen diluent (Gen-Probe GTI Diagnostics, Inc., U.S.A., Cat# ATS-13). The diluted plasma samples were mixed with the diluted substrate and the fluorescence was read at 0, 5, 10, 15, 20, 30, 45 minutes using a Biotek FLX800 at the appropriate excitation and emission wavelengths for each substrate.
The fluorophore-quencher pair in the SEQ ID NO: 1 polypeptide substrate is FAM-5/TQ 2^Tm (Ex 485±20; Em 528±20; AAT Bioquest, Inc. Sunnyvale, Calif. U.S.A.). The fluorophore and quencher pair of FRETS-VWF73 (Nma/Dnp) described in Kokame has been substituted with FAM-5 and TQ_2 respectively in GTI_FRET4 SEQ ID NO: 1. Furthermore, in the SEQ ID NO: 1 polypeptide the position of the fluorophore (FAM-5) and quencher (TQ_2) has been swapped relative to the position of the fluorophore and quencher of the FRETS-VWF73 construct. Therefore, for GTI_FRET4 SEQ ID NO: 1, attachment of the fluorophore (FAM-5) occurs by substituting asparagine with cystine at position 15. The quencher (TQ_2) was attached by substituting glutamine with lysine at position 4 (FIG. 2 and Table 4).
For this experiment, substrate concentration and fluorescence reader settings determined on the previous experiment are used. The specimens tested (listed in Table 3), include a panel of proficiency samples prepared for use with ATS-13 (Gen-Probe GTI Diagnostics, Inc., U.S.A., Cat# ATS-13) which included samples with normal or deficient ADAMTS13 activity levels. In addition, six Factor Assay ConTrol plasma were used (2 FACT, 2 A-FACT and 2 B-FACT, from George King Biomedical Inc., Kansas, USA). The assays for the SEQ ID NO: 1 substrate and for the prior art FRETS-VWF73 assay were performed generally as according to the procedure described in Example 1. Substrate is prepared according to the conditions used for initial testing of the substrate, which prepared the molar amount of SEQ ID NO: 1 polypeptide substrate used in the assay to be equivalent to the molar amount of FRETS-VWF73 used in the prior art. The […] assays were read at 0, 5, 10, 15, 20, 30, 45 minutes.
Testing of substrate for cleavability by ADAMTS13 is determined as is generally described in Example 1. […]

% Normal ADAMTS13 Values Calculated Using GTI_FRET4 Substrate (sample Calibrator D, incubation 15 Minutes): 58 % Normal | % Normal ADAMTS13 Values Calculated Using GTI_FRET4 Substrate (sample Calibrator D, incubation 30 Minutes): 59 % Normal | % Normal ADAMTS13 Values Calculated Using GTI_FRET4 Substrate (sample Calibrator D, incubation 45 Minutes): 59 % Normal | % Normal ADAMTS13 Values Calculated Using GTI_FRET4 Substrate (sample Calibrator D, incubation 60 Minutes): 60 % Normal | % Normal ADAMTS13 Values Calculated Using GTI_FRET4 Substrate (sample Calibrator D, incubation 75 Minutes): 61 % Normal | % Normal ADAMTS13 Values Calculated Using GTI_FRET4 Substrate (sample Calibrator D, incubation 90 Minutes): 62 % Normal | Increase in Fluorescence Values (X minute - 0 minute Reading) (sample Calibrator E, 15 min): 18,718 RFU | Increase in Fluorescence Values (X minute - 0 minute Reading) (sample Calibrator E, 30 min): 35,085 RFU | Increase in Fluorescence Values (X minute - 0 minute Reading) (sample Calibrator E, 45 min): 49,418 RFU | Increase in Fluorescence Values (X minute - 0 minute Reading) (sample Calibrator E, 60 min): 61,068 RFU | Increase in Fluorescence Values (X minute - 0 minute Reading) (sample Calibrator E, 75 min): 70,603 RFU | Increase in Fluorescence Values (X minute - 0 minute Reading) (sample Calibrator E, 90 min): 82,999 RFU | % Normal ADAMTS13 Values Calculated Using GTI_FRET4 Substrate (sample Calibrator E, incubation 15 Minutes): 101 % Normal | % Normal ADAMTS13 Values Calculated Using GTI_FRET4 Substrate (sample Calibrator E, incubation 30 Minutes): 101 % Normal | % Normal ADAMTS13 Values Calculated Using GTI_FRET4 Substrate (sample Calibrator E, incubation 45 Minutes): 100 % Normal | % Normal ADAMTS13 Values Calculated Using GTI_FRET4 Substrate (sample Calibrator E, incubation 60 Minutes): 100 % Normal | % Normal ADAMTS13 Values Calculated Using GTI_FRET4 Substrate (sample Calibrator E, incubation 75 Minutes): 98 % Normal | % Normal ADAMTS13 Values Calculated Using GTI_FRET4 Substrate (sample Calibrator E, incubation 90 Minutes): 98 % Normal | Increase in Fluorescence Values (X minute - 0 minute Reading) (sample MON110707, 15 min): 17,881 RFU | Increase in Fluorescence Values (X minute - 0 minute Reading) (sample MON110707, 30 min): 33,432 RFU | Increase in Fluorescence Values (X minute - 0 minute Reading) (sample MON110707, 45 min): 46,848 RFU | Increase in Fluorescence Values (X minute - 0 minute Reading) (sample MON110707, 60 min): 58,747 RFU | Increase in Fluorescence Values (X minute - 0 minute Reading) (sample MON110707, 75 min): 68,370 RFU | Increase in Fluorescence Values (X minute - 0 minute Reading) (sample MON110707, 90 min): 78,371 RFU | % Normal ADAMTS13 Values Calculated Using GTI_FRET4 Substrate (sample MON110707, incubation 15 Minutes): 97 % Normal | % Normal ADAMTS13 Values Calculated Using GTI_FRET4 Substrate (sample MON110707, incubation 30 Minutes): 96 % Normal | % Normal ADAMTS13 Values Calculated Using GTI_FRET4 Substrate (sample MON110707, incubation 45 Minutes): 95 % Normal | % Normal ADAMTS13 Values Calculated Using GTI_FRET4 Substrate (sample MON110707, incubation 60 Minutes): 96 % Normal | % Normal ADAMTS13 Values Calculated Using GTI_FRET4 Substrate (sample MON110707, incubation 75 Minutes): 95 % Normal | % Normal ADAMTS13 Values Calculated Using GTI_FRET4 Substrate (sample MON110707, incubation 90 Minutes): 92 % Normal | Increase in Fluorescence Values (X minute - 0 minute Reading) (sample Positive Control High, 15 min): 9,146 RFU | Increase in Fluorescence Values (X minute - 0 minute Reading) (sample Positive Control High, 30 min): 17,281 RFU | Increase in Fluorescence Values (X minute - 0 minute Reading) (sample Positive Control High, 45 min): 24,859 RFU | Increase in Fluorescence Values (X minute - 0 minute Reading) (sample Positive Control High, 60 min): 31,857 RFU | Increase in Fluorescence Values (X minute - 0 minute Reading) (sample Positive Control High, 75 min): 39,838 RFU | Increase in Fluorescence Values (X minute - 0 minute Reading) (sample Positive Control High, 90 min): 47,473 RFU | % Normal ADAMTS13 Values Calculated Using GTI_FRET4 Substrate (sample Positive Control High, incubation 15 Minutes): 48 % Normal | % Normal ADAMTS13 Values Calculated Using GTI_FRET4 Substrate (sample Positive Control High, incubation 30 Minutes): 49 % Normal | % Normal ADAMTS13 Values Calculated Using GTI_FRET4 Substrate (sample Positive Control High, incubation 45 Minutes): 50 % Normal
Sequence: DREKAPNLVYMVTGCPASDEIKRLPGDIQVVPIEVIGWPNAPILIQDEETLPREAPDLVLQR [GTI_FRET4]
